The data set addresses T1, TTP-2D (tristetraprolin, both CCCH zinc fingers) (UniProt P22893).
T1 sequence: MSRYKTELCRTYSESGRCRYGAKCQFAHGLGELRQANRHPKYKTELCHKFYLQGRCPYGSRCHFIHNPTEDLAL
The data set can be described thus: fluorescence anisotropy. Background: In fluorescence polarisation assays a small probe gives low polarisation when free and higher when bound to something large.

B1: UUUAUUUAUUU-F (AU-rich element) (ssRNA)
RNA: UUUAUUUAUUU
Consider B1, for which the binding result is listed as “binds”.

These data come from article PMC5688852.
